Results: article PMC2836954 (Molecular Biology of the Cell, 2010)

B1: EGFP-PKD2-WT (protein kinase D2, wild type) (enzyme, UniProt Q9BZL6 1-878, looked up)
chain: MATAPSYPAGLPGSPGPGSPPPPGGLELQSPPPLLPQIPAPGSGVSFHIQIGLTREFVLLPAASELAHVKQLACSIVDQKFPECGFYGLYDKILLFKHDPTSANLLQLVRSSGDIQEGDLVEVVLSASATFEDFQIRPHALTVHSYRAPAFCDHCGEMLFGLVRQGLKCDGCGLNYHKRCAFSIPNNCSGARKRRLSSTSLASGHSVRLGTSESLPCTAEELSRSTTELLPRRPPSSSSSSSASSYTGRPIELDKMLLSKVKVPHTFLIHSYTRPTVCQACKKLLKGLFRQGLQCKDCKFNCHKRCATRVPNDCLGEALINGDVPMEEATDFSEADKSALMDESEDSGVIPGSHSENALHASEEEEGEGGKAQSSLGYIPLMRVVQSVRHTTRKSSTTLREGWVVHYSNKDTLRKRHYWRLDCKCITLFQNNTTNRYYKEIPLSEILTVESAQNFSLVPPGTNPHCFEIVTANATYFVGEMPGGTPGGPSGQGAEAARGWETAIRQALMPVILQDAPSAPGHAPHRQASLSISVSNSQIQENVDIATVYQIFPDEVLGSGQFGVVYGGKHRKTGRDVAVKVIDKLRFPTKQESQLRNEVAILQSLRHPGIVNLECMFETPEKVFVVMEKLHGDMLEMILSSEKGRLPERLTKFLITQILVALRHLHFKNIVHCDLKPENVLLASADPFPQVKLCDFGFARIIGEKSFRRSVVGTPAYLAPEVLLNQGYNRSLDMWSVGVIMYVSLSGTFPFNEDEDINDQIQNAAFMYPASPWSHISAGAIDLINNLLQVKMRKRYSVDKSLSHPWLQEYQTWLDLRELEGKMGERYITHESDDARWEQFAAEHPLPGSGLPTDRDLGGACPPQDHDMQGLAERISVL

Experiments:
Assay in all cases: pull-down
[1] = molecular target: the active ARF1 mutants ARF-Q71L and ARF1-Δ17-Q71L
GST-ARF1 Δ17-Q71L = GST-ARF1 Δ17-Q71L (human, UniProt P84077 18-181, Q71L)
GST-ARF1-Q71L = GST-ARF1-Q71L (human, UniProt P84077 1-181, Q71L)
Chain of GST-ARF1-Q71L (P84077 whole entry Q71L): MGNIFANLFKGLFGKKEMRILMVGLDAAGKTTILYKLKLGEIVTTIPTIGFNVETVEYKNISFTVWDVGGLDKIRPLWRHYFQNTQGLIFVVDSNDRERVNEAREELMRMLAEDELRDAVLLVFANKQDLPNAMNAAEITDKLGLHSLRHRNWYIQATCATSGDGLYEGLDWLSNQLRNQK

Chain of GST-ARF1 Δ17-Q71L (P84077 18-181 Q71L): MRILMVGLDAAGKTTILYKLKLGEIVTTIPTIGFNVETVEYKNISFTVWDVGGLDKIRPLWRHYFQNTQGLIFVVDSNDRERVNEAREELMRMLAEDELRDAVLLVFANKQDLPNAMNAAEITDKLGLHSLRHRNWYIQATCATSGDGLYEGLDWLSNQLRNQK

Molecule	fold binding compared with wild-type or dominant-negative ARF1 [1] [fold]	fold binding compared with ARF1-WT (GST-ARF1 Δ17-Q71L) [fold]	fold binding compared with ARF1-WT or ARF1-T31N (GST-ARF1-Q71L) [fold]
His-tagged C1b domain of PKD2 (domain or fragment)	1.5 to 1.75	–	–
B1	–	2	2
